Laboratory results taken from the domain aggregation screens of Martell et al. (2025).

Assay: soluble fraction after stress (log2 fold change); higher = more stays soluble; pooled small domains, quantitative proteomics
Settings: stress: 75 degC
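Further: 20 min heating vs room temperature control held 20 min.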

Sequence	soluble fraction (log2)
HMDSIQMKNNSILYYGNTAGYLDAKRNTAVVDPMFRTDEMESYLSEQKGLSVEWASGTYDRLT	0.0501
HMDSLEIEEPITVKSLSAASGLKISDIIRKLMQEGIMATANQVIDREQAEAVLIDYNVDLVVKR	-0.281
HMDSLNWVEKIINTLPEQQRLIIQMRDIEQYEFAEIAKILEMNETAIRVALSRARKTIREFMIKTH	-2.07
HMDSLSLTELRIDSASPWIGNRISDFSPYAGELVIMIIRGEETIVPNGDTIILDKDLLVIYSS	-2.11
HMDSNFNYELVGFRLDDMGLNSSVIVKRNNQEFVIQKGDLLENKYLLNSVTKKNINFSYLGKNYQI	-1.07
HMDSNPLSEREQEVLQLVAKGASNQTIAEQLFLSNGTIRNYMTAIFNKLNANNRTDAVRIARENGW	-0.207
HMDSPVEEWANRGLAYDPSLVTETMAKLYAKQGQIGLARKAFKRLALIYPEKSVYFAFQLKKLSNN	-2.01
HMDSPVLTAEIKALIDKELEQNAVKLATGLKKQRKRATDIHDALIRQGHEVSYRTVVRYIRNKTAQTS	-0.751
HMDSTSEILKVIQNIVKKEDPYHPLSDDKISNLLNDLDYQISRRTVAKYRDILTIPSSSKRRKL	-0.256
HMDSVEMFSPILGMNANMDLDTLTQTRDKLLEKYKDDEQLIGLVNKTYDYFNEILLKQFLIEELEKNE	0.0898
HMDSVFGVVTSSDGVKLRKEASTISKVLTVLPYGTEVDVDRIGSEWIRIVTDGGQKGYVSADYLAVREGER	0.682
HMDSVPEEQLRQLALDKAKEVKRWGQPVELAKMNAHDRRIIHINLQDDPEIETRSEGEGALKSVIISLKK	0.0979
HMDSYADVLSDYRGKYKTNTISGLKGLRDKIREDMLAAADSLDFEKAALLRDEMNDLNKKIELKEKT	≥ 1.04
HMDTERLYAYAWQTHLKQFGLNISEEEIRQFVGVDDRIVHSFYAKTVPLDDFENTMFSLGEIIQQSL	-2.58
HMDTFNVIARQEIDGILYEYKIMTVEDYKNQSPENLAVIYENIKAVMEQYDLSEDDADAILVDLLG	-1.14
HMDTIRINSGSTVKEVAEYLGIPVPEVIKKLMSMGELATLTKTLSDDHIEVLAEEFEKKIKIVHVGEEAD	-0.458
HMDTITDSYTLEKGKLRAKVMEYELPESKKKEYSATFEYRGVYYHMIGIIEKADFEEILKNLHFP	-0.168
HMDTIVVAARSIQARQTLTESDLRVEEQEIGAASDKYYTDIAEAVGLVSSRRLSPGQPILRTM	-0.352
HMDTLKDFISGVSIVFENKYSVGDNVTIGDFRGDVIELGMKTTKIRAYTGEVLIIPNHLVEKVINH	-1.56
HMDTLRARQEAAYRFLSAIAGDWRNYEEANRALFAGDAARFQDLTESWPADVRDHARHLASAAFSS	-0.8
HMDTNAIIGLRIKNLRTEKKYTLKYLSENTGLSIGFLSQLERGMTSIAIDSLDKISKVLDVELSSFFT	-1.69
HMDTNELIDRYVNEVGQHLPRKTRADIEMELRSLLLDTLEEQSGGEPTPKMAAEVLREFGHPEEIAAQYH	-0.386
HMDTRKKLEQIFKLFDKTGTGMVNIDEFKSVLKLFMEEIDEKFGNYFIAYFDENGDGKIEFEEFADVVL	-0.444
HMDTSAHEVLSAIRSIIEDEDKRHPLSDEAITSRLSQQGYDIARRTVAKYRERLGLPVARLRRE	-0.26
HMDVALEALDESDGAVRLQFSGALQTYLNDSTTAASLEAISKTFRAFYEAAGRPVDTLEVYAAGEPVT	0.105
HMDVDKQLDQLLAAMIPDKSLRQTIKTKAFNELVDNELADKDISSWTKQTMDVFMTRAEDMFGAM	-0.274

Sequence	soluble fraction (log2)
HMDVEMLIDKYQLNDSEAEVLRFMKKNRQSLKTIGIRDVAKATYVSTATIINMAKKIGYSGYSELVFALGN	-1.69
HMDVNAQAGYDKLQSNQLDGARHDYEQALKTDPNNVDTLLALAAIAQRQGRSADADGYRQRAIDAD	-0.378
HMDVNHVIIDHKGNSIQAIIDSIDLDNVYYQSKIKKESEVIDIDKVYFIFNDFDRVYHYDWSYYENL	-0.166
HMDVNLSIRSGETIGIIGSTGSAKSTLVQLIPRLYDTTEGEVLVGGVNVKNYDLEALRNSVAMVLQKN	-0.112
HMDVPNLVGEEIKDVRRTLRHFQLEVIGEGSKIVSQVPKHGQRLPENTTIRVYLN	-0.0339
HMDVPNLVGKTLEEAENELKKLNIRYNVTERADEAPKDTVIEQSPKPYEAMEPGTVVNLVISSGPA	≥ 1.04
HMDVQPHIYLRKLDQFWPADLHSLILYTLDGRRLWSADSGNIPALPHRASSLVILEATWDNGQRTRRKQFL	-1.75
HMDVRKSISDLKALGLSDAAVTVYGTIGNKPVHIDKIVSELGIPVFKVLTALTQLEMKGLVTAMQGRMYVL	-2.13
HMDVSASEVGLTGRQTDVLSLMVKGRSNRDIAELLGLSEGTVKIHITAIFKALGVASRTQALVAAARLGLK	-0.82
HMDVSLVEQTQRDILEYISKNNSNAQLPKEQEFVGLLGVSRVVVREALSRLRALGIIETKRKKGTVVVVPE	-1.09
HMDWVAYGAELRRRRLLAGWSVAELSRRTNLSTSIIYQVEQARTRLRPSQLTLAKLAAALGMP	-3.1
HMDYAQAQRQAESAIALRPDVERLRLLLIYALQKQGKLREAEQAAADAIKSGLDTPALRQARANLRP	-0.732
HMDYGSISFINWSIEVLSVIKTRLDRGDKIIDEVSGEKYTASSFEKFVRKNFSSYIFSQVYAEDHKK	-2.73
HMDYHTIQTGDKGDEVLRLQQALAEYGYYEGDLDGRFGQQTRRAVERFQYSHGLTADGIAGRNTLSVLYD	-0.181
HMDYIITHYPDNKRFETQVDGVVAFVQYRLSGDKLDIIHTIVPPAIGGRGIAAALVKYAYDYAIENGMK	-2.13
HMDYKSKLQELVQTEKRTVEYKLVDESGPAHNKSFTFEVVISGIKYGSGTGASKKIAEQNAAKEALEKLA	-0.277
HMDYKSTLQELVQTVKKSVTYEVIDEEGPSHNKTFTSIVKIDGIVMGKGTAGSKKASEQEAARDALSKR	0.42
HMDYLYHNGKEIDQGSIMYKMEDYSDGIFELQSAKYADGTELDEKELEELESTQELIDWVMIDFVS	0.675
HMDYNSYGLTERELELVDYVLKGYSRKEMAEASGLKVNTIGSYMKKIYRKLNIHNRTELKERFI	-0.119
HMDYNYLVFVTNTGPRSIAVEDLEMTVSDGKLVVSSGADGETFDLSTLTKMYFSDAAVVSINDV	-1.1
HMDYQYILVDVKDRIATVTINRPEYSNAFARESYYEIADAMNTLGARDDVGVIVITGAGKHFSAGGDIKRF	-0.777
HMDYYKILGLSTSATLDQIKKAFRQLAIEFHPDKNPNNPTAEDKFQRISEAYAVLSNPEKRAEYDRSY	-0.0123
HMEAAETAVVTGTIVNIRSGPTLDFEAFAQVKQGDRLPVLDKFYNWYYVKLPSGVNGWISGQLVRIEQ	-2.86
HMEAELNSLVKTYENMKPKAAAQVFEELDMDVLLDVVERMKEKKLAPILAQVTPTRAKEITYELTQRR	-0.102
HMEAFDYLGRRTRDLLERQGWTTVPLVRDAYLAVPGGERLLQVPGFGRKSLREVRRWLWLQIGDPRFE	-1.25
HMEAIYKKNKNLIHTVIRDNFPFLIDTADYEDAFQEGSIGLIRAIDRFDDGLEYKFSSYAYTAIRNQIA	-1.15

Sequence	soluble fraction (log2)
HMEALGLSPRQVDVLRLLVEGRSNKMIMRELELSESTVKTHLQAIFRRLGVSSRTQAVVAAARLGL	-1.2
HMEALSAREIEILQALETGASNRELAKMLFISEATVKTHLVHIYQKLGVGTRTAAITEARERRV	-2.1
HMEANAYFDAYPDVAAEWARLSGSDEGKATLSAIGVTTPQQFAQYHYTTFGSKENRNAPVGYTP	0.072
HMEANPLTDREKEVLELVADGKNTKEIAQELSIKSGTVRNYISMILEKLEVKNRIEAITRSKEKGWF	-0.161
HMEAPMPIFWRPQFRIGHDDIDADHRYLILLINTVELVLRFPDDPRNVELALTELRRYAEDHFEREER	-0.0783
HMEAQAHYDAIYKAHPNADSIAQSAEFKAWVDAQPSVVRNAYWQLFDPKEGGTAEQIVEVFDAFVKSS	0.327
HMEDDIRSSIRTLDQFISKNQITLSKDVKNYILQLLSNDRMVTINELEKIKIYYDSNENIDLDTVKILLN	-0.796
HMEDEEILNEIRHTEQYVYYFGNYIMEHHVSRGLSKEKVIASLARELQIEIADIREDFDGMIEQIKTNILN	-0.329
HMEDESSIERYLGSGAIKGIGPSLAARIVKKFGKDTFRIIEQEPERLAEIKGISERKAMEISTLMEEK	-0.056
HMEDGRLPPPGTVLRREYKGRAVFVRVLPKGFEFEGEVYRSLSAIAAKVTGSHWNGFRFFGLHE	-3.01
HMEDHMVVFGKGGRITRLPDKATVLEYLDAANFFASRSSVVKVNGKLASLDQTLRDGDSIEIVD	-0.407
HMEDINAVLAENLRRLRESRRLSLDAVARLTGVSKSMLGQIERGEVNPTVSTMWKIAGGLKVNFTALFRRE	-3.79
HMEDIQPSVIFQNNMIDGFKKFGVSFLQNRRNVNVNTLNGLASAGTYPKWQQLLVNKISYIDMLLSTGG	0.0954
HMEDKIIVTVPGEYHLERIDRFLAANLEEDLSRSLIQRYIRENLITVNGEAVRANYKVKTDDEILITFPQ	-0.842
HMEDLAERLDNLSTMYAKMDPVRAAQVLLESKNKSENIEVLKRLKPKSLGLILENMPPREAYDYVSELQ	0.0743
HMEDLGYVKVASQTAAIRKSAAVQAGQIGTVHEGETYRYLGEEEGWYLVEYNGQKAYISWDDGEL	-0.323
HMEDMMKALLDVVRAQHTATEGSEERPFDINDIIDMALNITGRPEEPEEQQELSDTIQKLAESLAPDIFP	-0.424
HMEDNKLKNEIKNELVSHLEKPYSVEDLADALKYHGSAAFKLIVQELAILERERAVVVTHDGNFKINSS	-1.11
HMEDPAVYYKILQIPPDASLSEIHRAFEKITSAWDPERYPHISSWKETSAKKLQEIRNAYEKLLILRETG	-0.269
HMEDPFLWVEKLGSSDWIEREESAEKLLEAGEASVEALRTALTHPDLEVRERVRELLSVISPL	0.409
HMEDPRVTEIKNLQQDLAKKFKPTQGPASASDAVERVTAITTVMTKVAALPEDLRSEAMQPGKKM	-0.327
HMEDQFWQNRAEMALASARRAGRIVTYAEMADAADIPAPQRIHKLTLWLEATMRQDHASGQPLRAALV	0.0883
HMEDQITNQQFTMTKQSILDLLVKKSYPPYELANELHLKKEEVLPIIRFLIAENEIHFKDGMLHLPH	-1.01
HMEDQLDSLKDIIYDYLENNELYYNDLQEFKKIIIENMEFIHPNLNHKLIDNNFFKLINFKLEYNF	-0.152
HMEDSSSILNRMRKLIALLNRASEAYYKENKEIISNFEYDRLYDELLGLESRSNTVLSGSPTYKV	-1.87
